Measurements reported in patent US20210115138A1.

Experiments:
[1] = target: human LAG-3 protein (Example 3) (human) (UniProt P18627); experiment: SPR
[2] = target: human LAG-3 on cells (human) (UniProt P18627); experiment: FACS on cell surface human LAG-3
[3] = target: human LAG-3 on cells (human) (UniProt P18627); experiment: FACS affinity test on cell surface human LAG-3
[4] = target: human LAG-3 protein (Example 3) (human) (UniProt P18627); experiment: ELISA; blocking of LAG-3 protein binding to LSECtin
[5] = target: human LAG-3 protein (Example 3) (human) (UniProt P18627); experiment: ELISA; blocking of LAG-3 protein binding to Galectin-3
[6] = target: human LAG-3 protein (Example 3) (human) (UniProt P18627); experiment: FACS; blocking of LAG-3 protein binding to MHC-II on Raji cells

Chain of human LAG-3 protein (Example 3) (human) (P18627 23-450 limits assumed): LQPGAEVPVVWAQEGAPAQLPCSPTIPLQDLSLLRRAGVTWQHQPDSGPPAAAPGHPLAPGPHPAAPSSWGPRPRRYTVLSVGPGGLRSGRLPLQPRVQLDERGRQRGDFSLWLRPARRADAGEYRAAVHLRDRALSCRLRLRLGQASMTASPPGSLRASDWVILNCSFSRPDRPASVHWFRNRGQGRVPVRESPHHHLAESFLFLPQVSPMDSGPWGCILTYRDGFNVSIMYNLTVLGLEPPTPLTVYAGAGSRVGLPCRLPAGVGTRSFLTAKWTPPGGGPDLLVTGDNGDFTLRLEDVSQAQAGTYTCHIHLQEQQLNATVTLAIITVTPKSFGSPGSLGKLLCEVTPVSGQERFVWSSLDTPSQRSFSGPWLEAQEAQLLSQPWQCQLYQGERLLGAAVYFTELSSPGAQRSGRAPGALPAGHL
Chain of human LAG-3 on cells (human) (P18627 23-525): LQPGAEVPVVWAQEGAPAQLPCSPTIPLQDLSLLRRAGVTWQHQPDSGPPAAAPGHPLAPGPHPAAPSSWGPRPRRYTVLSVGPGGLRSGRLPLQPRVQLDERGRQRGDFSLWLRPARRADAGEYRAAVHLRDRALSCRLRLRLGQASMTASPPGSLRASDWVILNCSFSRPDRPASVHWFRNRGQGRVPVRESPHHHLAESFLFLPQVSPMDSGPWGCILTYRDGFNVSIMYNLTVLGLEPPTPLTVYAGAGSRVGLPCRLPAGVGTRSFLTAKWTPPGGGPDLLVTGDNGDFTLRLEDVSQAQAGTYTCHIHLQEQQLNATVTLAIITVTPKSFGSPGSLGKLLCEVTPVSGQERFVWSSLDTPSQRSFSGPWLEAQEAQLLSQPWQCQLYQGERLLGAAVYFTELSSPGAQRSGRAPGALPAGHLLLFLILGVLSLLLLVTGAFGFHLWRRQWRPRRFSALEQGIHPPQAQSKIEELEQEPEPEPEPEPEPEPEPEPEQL

- Kd [1]: 0.497 nM
- EC50 [2]: 0.61 nM
- Kd [3]: 0.58 nM
- EC50 [4]: 0.59 nM
- EC50 [5]: 0.79 nM
- EC50 [6]: 1.25 nM
B1: BMK7 (antibody, INN chains, looked up, V domains shown)
VH: QVQLVESGGGVVQPGRSLRLSCVASGFTFSSYGMHWVRQAPGKGLEWVAIIWYDGSNKYYADSVKGRFTISRDNSKNTQYLQMNSLRAEDTAVYYCASVATSGDFDYYGMDVWGQGTTVTVSS
VL: EIVLTQSPATLSLSPGERTTLSCRASQRISTYLAWYQQKPGQAPRLLIYDASKRATGIPARFSGSGSGTGFTLTISSLEPEDFAVYYCQQRSNWPLTFGGGTKVEIK
